The record followed here is the supplement of paper PMC12042874.

± gives the uncertainty stated by the source.

The data set is described as follows: amyloid nucleation score (Sup35N fusion, yeast selection) (log enrichment); library NNK3; higher = more nucleation; inactive = no reads after selection. The method in brief: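 DiMSum was used to calculate nucleation scores as log enrichment of output over input reads, centred on the mode score of non-aggregating sequences. Sequences with fewer than 100 input reads were not scored. Input and output came from Illumina sequencing of plasmid inserts in psi-negative yeast expressing peptides of 20 random codons fused to Sup35N, induced 24 hours with 100 μM copper sulfate and then grown 7 days at 30°C on medium lacking adenine and uracil.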
For INFVYSHM, the amyloid nucleation score worked out at 1.75 ± 0.12.

INGDMFSSFENVCYYEVSSL: the amyloid nucleation score was -0.325 ± 0.3. For INGSGSAIYGRITRGLNGDS, the amyloid nucleation score result was “inactive”. Take INLPDASS: the amyloid nucleation score result is “inactive”. Regarding INMRFIQKRMFVYLNYSWYA, the amyloid nucleation score entry is “inactive”. Turning to INQGLTWMLDRPSKFAFVAV, the amyloid nucleation score result was “inactive”. For INQYRPAPIQEAPLF, the amyloid nucleation score result is “inactive”. Take INRHGCIGVHTLSLMLRPCV: the amyloid nucleation score result was “inactive”. As to INYIIVSGSAGIRMTGK, the amyloid nucleation score was 2.52 ± 0.064. Take IPFTENSVPPFKGLTVSSNV: the amyloid nucleation score entry is “inactive”. For IPRVDLLLCLDSIGLGRSLN, the amyloid nucleation score entry is “inactive”.

For IPSVFKLSVWGYADSTCLRR, the amyloid nucleation score result was “inactive”. With IPTIVPLAQLRVSVTSVWNL the entry was “inactive”; with IPVCAWRWSG, “inactive”.

IPVGIRSRFVLYSCGMTGVK: the amyloid nucleation score entry was “inactive”. With IQGVAWVQKAWFSRKAGVQI the entry was “inactive”; with IQGYLANDVPMRNWPG, “inactive”; with IQRVGTKGDVISTFCNRQQL, “inactive”. For IQWMLCAKANLIEYKGVFFI, the amyloid nucleation score entry is “inactive”. With IREYCFH, the amyloid nucleation score result was “inactive”. In the case of IRGDGCTGARSPTTSRAAGN, the amyloid nucleation score result was “inactive”. Turning to IRITNDNFVVRLVSQTVGLK, the amyloid nucleation score entry was “inactive”. As for IRNFSLKPISSNLNSL, the amyloid nucleation score result was “inactive”. Regarding IRRDLYQATPRNLVWAYFGW, the amyloid nucleation score entry is “inactive”. IRTARNTEETMVVACMTVGV: the amyloid nucleation score entry is “inactive”. With ISFSLH, the amyloid nucleation score entry is “inactive”. With ISILLIFPCEAVIFLPF the entry was “inactive”; with ISKWESKSSSGLDFL, “inactive”; with ISLFDNNLRGWMYGVFRSIA, “inactive”.

On to ISLGRCNNDHWRILVGTWSA, for which the amyloid nucleation score entry was “inactive”. In turn, ISLLYVFMLNR yielded an amyloid nucleation score of 2.11 ± 0.078.

As to ISLSR, the amyloid nucleation score entry is “inactive”. With ISPGRAGQVVSLAGHSYQAL the entry was “inactive”; with ISRGVVIGTFRRLIERSCGT, “inactive”. With ISSLGKKTW the entry was “inactive”. Take ISSNVWARDIRNWLNVTGYC: the amyloid nucleation score entry is “inactive”. ISVGVLSVCCGIC: the amyloid nucleation score was found to be 2.57 ± 0.078. Regarding ISVNALYNLMHKCNYNAKLR, the amyloid nucleation score entry was “inactive”.

As for ISVSRKLLKCLVKCMNPGCG, the amyloid nucleation score result is “inactive”. As for ITCGIKIFF, the amyloid nucleation score came to 2.76 ± 0.068. For the substance ITCLNLINGGYHP, the amyloid nucleation score was -0.066 ± 0.3. On to ITESIVQFLAFWVRDTDYVC, for which the amyloid nucleation score result is “inactive”. ITFIM: the amyloid nucleation score result was “inactive”. For ITGHSVLCWGNSSSTMCEMG, the amyloid nucleation score entry was “inactive”. Consider ITHFIMCPYYDYQRDGHWIT, for which the amyloid nucleation score result is “inactive”. Take ITIFDRMNH: the amyloid nucleation score result is “inactive”. In the case of ITLRDVGGHGANLWEGMQFM, the amyloid nucleation score entry was “inactive”. ITMTCFCIMGAESISNLPMW showed an amyloid nucleation score of 1.33 ± 0.11. Substance ITNVWSVFKIRIGNCGFGAG had an amyloid nucleation score of 1.9 ± 0.1.

Turning to ITSSVSFSRPYGVRGLLKKG, the amyloid nucleation score stood at 0.002 ± 0.43. ITYAQSLKLCRTRVIGGLMY came in with an amyloid nucleation score of 0.445 ± 0.2. Regarding IVCCGSGSEEVGKLSGRIKN, the amyloid nucleation score result is “inactive”. With IVDAIILWCSKILIWVGIGQ the entry was “inactive”.
